Article PMC4014545, “Structure and Inhibition of Mouse Leukotriene C4 Synthase” (PLoS ONE, 2014)
Values belong to the molecule of their own block, whether it stands above or below them.

Experiments:
[1] = biological target: T1, mouse leukotriene C4 synthase (mLTC4S) (Mus musculus, UniProt Q60860); experiment: LTC4 formation by purified enzyme, RP-HPLC; competitive inhibition model fit; format: biochemical
T1 construct: gene Ltc4s; N-terminal hexa-histidine tag
T1 sequence (Q60860 1-150): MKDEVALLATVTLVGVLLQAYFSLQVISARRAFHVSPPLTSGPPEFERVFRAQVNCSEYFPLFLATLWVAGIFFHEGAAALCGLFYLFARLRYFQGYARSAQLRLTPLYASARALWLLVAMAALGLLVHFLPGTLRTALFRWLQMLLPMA

[2] = biological target: T2, human leukotriene C4 synthase (hLTC4S) (Homo sapiens, UniProt Q16873); experiment: as above; format: biochemical
T2 construct: gene LTC4S
T2 sequence (Q16873 1-150): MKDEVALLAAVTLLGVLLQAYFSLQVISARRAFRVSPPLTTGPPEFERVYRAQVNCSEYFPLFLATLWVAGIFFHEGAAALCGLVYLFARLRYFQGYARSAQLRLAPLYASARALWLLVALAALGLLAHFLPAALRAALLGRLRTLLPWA

[3] = biological target: T1, mouse leukotriene C4 synthase (mLTC4S); experiment: X-ray crystal structure (co-crystal), […] Å; Km […] also measured; format: binding
[4] = substrate: CCCCC/C=C\C\C=C/C=C/C=C/[C@@H]1O[C@H]1CCCC(=O)O; experiment: steady-state kinetics (Km) of purified enzyme, RP-HPLC; format: biochemical, Mus musculus; conditions: GSH hydrophobic LTA4 binding site; pH 7.8
[5] = substrate: CCCCC/C=C\C\C=C/C=C/C=C/[C@@H]1O[C@H]1CCCC(=O)O; experiment: as above; format: biochemical, Homo sapiens; conditions: GSH hydrophobic LTA4 binding site; pH 7.8

Ki [1]: 37 ± 6.4 nM
Ki [2]: 41 ± 6.6 nM
Molecule: CN(c1ccc(Cl)cc1)c1ccc(C(=O)c2ccc(C(=O)c3ccccc3)c(C(=O)O)c2)nc1 [TK04, 2-Benzoyl-5-{5-[(4-chlorophenyl) (methyl)amino]pyridine-2-carbonyl}benzoic acid]

Molecule: N[C@@H](CCC(=O)N[C@@H](CS)C(=O)NCC(=O)O)C(=O)O [GSH]
X-ray crystal structure (co-crystal), 2.7 Å; Km 1.2±0.24 mM also measured [3]: In the structure of the mLTC4S in complex with GSH, the tripeptide has a “U” shaped conformation

B1: mouse leukotriene C4 synthase (mLTC4S) (Mus musculus) (protein)
chain: MKDEVALLATVTLVGVLLQAYFSLQVISARRAFHVSPPLTSGPPEFERVFRAQVNCSEYFPLFLATLWVAGIFFHEGAAALCGLFYLFARLRYFQGYARSAQLRLTPLYASARALWLLVAMAALGLLVHFLPGTLRTALFRWLQMLLPMA
notes: N-terminal hexa-histidine tag
Km [4]: 36 ± 8 µM
kcat [4]: 81 ± 7 s⁻¹
kcat/Km [4]: 2.3e+06 ± 260000 M⁻¹ s⁻¹

B2: human leukotriene C4 synthase (hLTC4S) (Homo sapiens) (protein)
chain: MKDEVALLAAVTLLGVLLQAYFSLQVISARRAFRVSPPLTTGPPEFERVYRAQVNCSEYFPLFLATLWVAGIFFHEGAAALCGLVYLFARLRYFQGYARSAQLRLAPLYASARALWLLVALAALGLLAHFLPAALRAALLGRLRTLLPWA
Km [5]: 23 ± 3 µM
kcat [5]: 15.5 ± 0.8 s⁻¹
kcat/Km [5]: 600000 ± 57000 M⁻¹ s⁻¹
